Results taken from the supplement of paper PMC9170038.

These sequences were tested on MS2 coat protein (assay: apparent KD of MS2 coat protein, switch ON state; designed switch direction (-1 OFF switch, 1 ON switch): -1; higher = weaker reporter binding). Conditions: FMN input: 0 or 200 uM; Eterna round: R93 (includes R88 designs).
How it was run: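 SNAP-549-labelled MS2 coat protein was titrated onto designed RNA switches that had been transcribed on-chip from Illumina sequencing clusters. Amounts doubled from 0.7 or 1.5 nM to 3 µM in 100 mM Tris-HCl pH 7.5, 80 mM KCl, 4 mM MgCl2, with constant ligand or without. Apparent KD is the median per design of normalised cluster binding-curve fits.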

Sequence	apparent KD of MS2 coat protein [nM]
AAAAAACAUGAGGAUCACCCAUGUGAGGAUAUCGGAAACAAAAAAAACAAAAACAAAACGAGAAGGCACAAAAA [Amethyst 32]	72.4
CAGUGACAUGAGGAUCACCCAUGUUAGGAUAUGCGUGUUAGAAAAAAAAAGUUAAUAAGCAGAAGGAACAGUGG [JR_Exc001_Sub311]	40.8
AGCAAGUAAGGAUAUGCGAAGUCAGGACACACACUGACGAAGCAGAAGGUACAUGAGGAUCACCCAUGUAAGCA [JR_Exclusion-4 65% 3]	24.6
AAGACUACAGGAUAUACAUGAGGAUCACCCAUGUAACUGACAAGCAGAGUACGGAGAAGUAGAAGGGUAGUCAA [Ruby 33]	20.3
AAGAAGUCAGGAUAUGCUAAAGAAAUAAAAAGAAAGAAAGAACAUGAGGAUCACCCAUGUAGAAGGGACAAGAA [Seheqenre Sankhptahi]	72.9
AAGUUGGUAGGAUAUACGUGCAAUUGGUGUGUCCGGAAAAAACAUGAGGAUCACCCAUGUAGAAGGACCAAAAA [Quonmabi]	47.5
GAAAAAGGAGGAUAUACGUACAUGUCAAAAGACGUGAAGGGACAUGAGGAUCACCCAUGUAGAAGGCUUAAAAG [Mat - Exclusion 2 - JL mod - D95]	59.4
AGAAAACGAGGAUAUGCAAGGGAAGAAAGAAGAGAGAAAAAACAUGAGGAUCACCCAUGUAGAAGGUGUAAAAA [JR_Exc002_Sub1714]	57.5
AGAAUACAUGAGGAUCACCCAUGUGAGGAUAUGCAGAUAAAAAUAAAAUAAAAUAAAUGCAGAAGGCACGAAAG [EX 1 May 21]	37.1
AAAAACAGAGGAUAUACAAAAUGAUGACGAAAGUCAUCAAAACAUGAGGAUCACCCAUGUAGAAGGCUGAAAAA [Mod of Meechl]	24.2
AGGAAACAUGAGGAUCACCCAUGUGAGGAUAUAUGAAAGAAAAGAAAAGAAAGAAGAAGUAGAAGGCACAAGAA [Djer]	27.2
GCUUGUGUAGGAUAUACAUGAGGAUCACCCAUGUGAGAGAAAAAAGUGAGAAAGAAAAGUAGAAGGACGUGAGG [salish99-ex3-80]	86.5
AAAACGGUAGGAUAUACGAUUUGGAACUAAACCGAGGAACCACAUGAGGAUCACCCAUGUAGAAGGGCCAAAAA [Mat - Exclusion 2 - JL mod - D81]	18.4
AAGAACUCAGGAUAUACAUGAGGAUCACCCAUGUAAAAGAAAGAAGGGAAAGAGAAAAGUAGAAGGGAGAAGAA [Niumateped]	17.5
AAAAGUCGAGGAUAUGCAAAAUGAUUGCGAAAGCAAUCAAAACAUGAGGAUCACCCAUGUAGAAGGCGACAAAA [Fiskers Exclusion 2 D3]	19.6
AGUUGGCGAGGAUAUACAUGAGGAUCACCCAUGUGAAAAAAAAAAGUGAGAAAGAAAAGUAGAAGGCGCUGACA [Mat - Exclusion 3 - Lego mod - D89]	35.1
AAAAGUUCAGGAUAUACAUGAGGAUCACCCAUGUAGAAAGGAAGUGUAAAAAAAAAGUGUAGAAGGGAGCAUGA [MS2 Riboswitches On Chip Exclusion 3 wbt2]	22.2
AGUCAUACAGGAUAUACAUGAGGAUCACCCAUGUAUAUCCAAAAAAAAAAAAACUCAUGUAGAAGGGUAUGACA [EX3 206: Super Stable 6]	12
AAAAGGUCAGGAUAUACAAAAAAAAAAAAAAAAAAAAAAAAGUAGAAGGGACAUGAGGAUCACCCAUGUGAAAA [Exclusion 4 - Omei 2]	64
AACAGUACAGGAUAUACAUGAGGAUCACCCAUGUGAGAAUUAAGUGGCGAACCACAAAGUAGAAGGGUACUGGA [Mat - Exclusion 3 - JL mod - D1]	43.1
GAAAGGGCAGGAUAUGCAGAGAGAAAAAAAAAAAAAAAAAAACAUGAGGAUCACCCAUGUAGAAGGGCCGAAAG [salish99-ex2-03]	34.7
AAAAGCUCAGGAUAUACGGUCUGUUGUUGAGAAAUAAAAAAACAUGAGGAUCACCCAUGUAGAAGGGAGCGAAA [Exclusion2-cac3]	44.4
AGUUGGCGAGGAUAUACAUGAGGAUCACCCAUGUGAGAGAAAAAAGUGAGAAAGAAAAGUAGAAGGCGCUGACA [Norbert Elias]	49.2

Sequence	apparent KD of MS2 coat protein [nM]
AACAGUACAGGAUAUACAUGAGGAUCACCCAUGUGAGAAUUAAGCAGCGUAACACAAAGUAGAAGGGUAAUGGA [Ruby 19]	39.9
AACUGACAUGAGGAUCACCCAUGUCAGGAUAUGAUAUGUAAAAAAAAAAAAAUACUUAUCAGAAGGGACAUGGA [Design 42: Sub-opt BB]	22.8
AAAUUGUCAGGAUAUCCAGCUAUACGAAAUAUAUAUACACGGGAGAAGGGACAUGAGGAUCACCCAUGUUUGAA [JR_Exc004_Sub702]	34
AAAAAGAGAGGAUAUGCAGGAGGUAAGGUCAAAAAAAAAAAACAUGAGGAUCACCCAUGUAGAAGGUUUAAAAA [Ecls2-VI]	29.3
AAAGUGCAAGGAUAUAUAUGAAAAGUUACGAAAGUAACAAAACAUGAGGAUCACCCAUGUAGAAGGUGCACAAA [Seclusion (MS2 riboswitches - Exlclusion 2)]	24.6
AAGAAACAUGAGGAUCACCCAUGUGAGGAUAUGGAAGAAAGAAAGAAAGAAAGAAGAACCAGAAGGCACAAAGG [Publius Rubrius Barbarus]	144
AAAUUGUCAGGAUAUCCUAUAAUAAUAAAAUAGAGGAGAUAGGAGAAGGGACAUGAGGAUCACCCAUGUAAAAC [May 85]	37.7
CUCAUGUCAGGAUAUGUAGCAUGAUACGAAAGUAUCAUGCUACAGAAGGGACAUGAGGAUCACCCAUGUAAAAA [Ex4: 942]	20.2
AAAAAGUGAGGAUAUACAUGAGGAUCACCCAUGUUAAAAAAAAAAAAAUAUAAAAAUAGUAGAAGGCACAAAAA [Default title]	48.8
AGCAUGUGAGGAUAUGCGGACUCCAAUAAAUCUGGAGUCCAGUAGAAGGCACAUGAGGAUCACCCAUGUGAUAA [Soenaesma]	102
AUAAAGUCAGGAUAUGUAAAAAUAACGAAAGUUAUAAAUAAACAGAAGGGACAUGAGGAUCACCCAUGUAAAAU [Meechl MS2 Ex4]	47
AAGAAGUGAGGAUAUCGAAGACAGACGAAAAGUCUGUCAAACGAGAAGGCACAUGAGGAUCACCCAUGUGGGAG [Mat - Exaclusion 4 - Eli mod - D74]	114
AACAAACAUGAGGAUCACCCAUGUCAGGAUAUGCAAAUAACAAACAACAAACAACAAAGCAGAAGGGAUAGGAA [Mat - Exclusion 1 - Eli mod - D52]	23.3
AAAAAGGCAGGAUAUACGAAGCUAAGACAAAUAAGCAAGGGACAUGAGGAUCACCCAUGUAGAAGGGCCAAAAA [Exclusion 2-01... 60% 3]	41.1
AAAAAACAUGAGGAUCACCCAUGUAAGGAUAUGCCUAAAAAAAAAAAAAAAAAAAAUGGCAGAAGGUGCAAAAA [excalibur15]	41.6
AAAAAGUCAGGAUAUGUACAAAAUAAAAUAAAAAUAAAAGUACAGAAGGGACAUGAGGAUCACCCAUGUAAAAA [Ex 4 May 11]	38.6
AAAAAGUGAGGAUAUGGUAAAAAAAAAAAAAAAAAGCACCUCCAGAAGGCACAUGAGGAUCACCCAUGUCGAAA [Jolly's Folly 6 - Jieux - Exclusion 4]	24.4
AAAAAACAUGAGGAUCACCCAUGUAAGGAUAUCUAAAAUAAAAGAAAAAUAAAGAAAAGGAGAAGGUACAUGAA [JL wbt mod 21]	28.6
AAAAAGGUAGGAUAUACAUGAGGAUCACCCAUGUAAAAAAAAACAAGAGAAAAAAAAUGUAGAAGGGCCAAAAA [Ex3 Malc#4]	14.3
UUUUGACAUGAGGAUCACCCAUGUCAGGAUAUAGUAGGACAAAAAAAAAAAAGUUCUACUAGAAGGGAUAUGAA [Design 16: Not So Super Stable 2]	17.8
AACAGUACAGGAUAUACAUGAGGAUCACCCAUGUGAAAAUAAAGUGGCGUACCACAAAGUAGAAGGGUACUGAA [Mat - Exclusion 3 - JL mod - D26]	26.7
AAGAAUGUAGGAUAUACAAGGAAGAAAGAAAAGAAAAGAAAACAUGAGGAUCACCCAUGUAGAAGGACAUAGAA [EteRNA is fun!]	23.6
